These results are taken from EP1997885A1 (AXXAM S.p.A., dated 2008).

Where only a bound is given, the exact number is not on record here.

The target of series [1] is recombinant (His6)-tagged DsRed2. The experiment in a line: size exclusion chromatography on Superdex 200, 2 mg/mL, self-association.
Series [2] concerns the target recombinant (His6)-tagged EGFP. Described as above.
The target of series [3] is AsGFP499(S103K), recombinant his-tagged (Anemonia sulcata). The experiment in a line: pseudo-native SDS-PAGE, self-association.
For series [4] the target is unchanged. The series can be described thus: size exclusion chromatography on Superdex 200, 2 mg/mL, self-association. (In gel filtration, larger molecules generally elute earlier.)
Series [5] concerns the molecule itself. The series can be described thus: pseudo-native SDS-PAGE, self-association.
The target of series [6] is AsGFP499(S103K/R150E), recombinant his-tagged (Anemonia sulcata). The series can be described thus: size exclusion chromatography on Superdex 200, 2 mg/mL, self-association; second peak.
The target is the same in series [7]. The series can be described thus: size exclusion chromatography on Superdex 200, 2 mg/mL, self-association; first peak.
The target of series [8] is AsGFP499(S94T/S103K/R150K/S171N/K206R), recombinant his-tagged (Anemonia sulcata). The experiment in a line: size exclusion chromatography on Superdex 200, 2 mg/mL, self-association; second peak.
Series [9] shares this target. The experiment in a line: size exclusion chromatography on Superdex 200, 2 mg/mL, self-association; first peak.

With recombinant (His6)-tagged DsRed2, the Apparent MW [kDa] in [1] turned out to be 79 kDa.

recombinant (His6)-tagged EGFP: the Apparent MW [kDa] in [2] is 27 kDa.

B1: AsGFP499(S103K), recombinant his-tagged (protein, not shown: small tags and cut ends)
chain: MYPSIKETMRVQLSMEGSVNYHAFKCTGKGEGKPYEGTQSLNITITEGGPLPFAFDILSHAFQYGIKVFAKYPKEIPDFFKQSLPGGFSWERVSTYEDGGVLKATQETSLQGDCIICKVKVLGTNFPANGPVMQKKTCGWEPSTETVIPRDGGLLLRDTPALMLADGGHLSCFMETTYKSKKEVKLPELHFHHLRMEKLNISDDWKTVEQHESVVASYSQVPSKLGHN
For B1, the MW on pseudo-native SDS-PAGE in series [3] is under 50 kDa. For the same molecule, the Apparent MW [kDa] in series [4] was 39 kDa.

B2: AsGFP499(S103K/T159K/F173E), recombinant his-tagged (other)
chain: MYPSIKETMRVQLSMEGSVNYHAFKCTGKGEGKPYEGTQSLNITITEGGPLPFAFDILSHAFQYGIKVFAKYPKEIPDFFKQSLPGGFSWERVSTYEDGGVLKATQETSLQGDCIICKVKVLGTNFPANGPVMQKKTCGWEPSTETVIPRDGGLLLRDKPALMLADGGHLSCEMETTYKSKKEVKLPELHFHHLRMEKLNISDDWKTVEQHESVVASYSQVPSKLGHN
notes: Reported as a monomer; not shown: (His6) tag and vector-encoded residues of pET28a(+)
Take B2: the binding result in [5] was “no binding”.

B3: AsGFP499(S103K/F173E) (other)
chain: MYPSIKETMRVQLSMEGSVNYHAFKCTGKGEGKPYEGTQSLNITITEGGPLPFAFDILSHAFQYGIKVFAKYPKEIPDFFKQSLPGGFSWERVSTYEDGGVLKATQETSLQGDCIICKVKVLGTNFPANGPVMQKKTCGWEPSTETVIPRDGGLLLRDTPALMLADGGHLSCEMETTYKSKKEVKLPELHFHHLRMEKLNISDDWKTVEQHESVVASYSQVPSKLGHN
notes: Only tested on the pseudo-native gel; reported as partly monomeric; also called AsGFP499 (S103/F173E); not shown: tag and vector-encoded residues of the bacterial expression vector
Turning to B3, the binding result in series [5] was “binds”.

B4: AsGFP499(S94T/S103K/T159K/F173E), recombinant his-tagged (other)
chain: MYPSIKETMRVQLSMEGSVNYHAFKCTGKGEGKPYEGTQSLNITITEGGPLPFAFDILSHAFQYGIKVFAKYPKEIPDFFKQSLPGGFSWERVTTYEDGGVLKATQETSLQGDCIICKVKVLGTNFPANGPVMQKKTCGWEPSTETVIPRDGGLLLRDKPALMLADGGHLSCEMETTYKSKKEVKLPELHFHHLRMEKLNISDDWKTVEQHESVVASYSQVPSKLGHN
notes: as for B2
As to B4, the binding result in series [5] is “no binding”.

B5: AsGFP499(S103K/R150E), recombinant his-tagged (protein, not shown: small tags and cut ends)
chain: MYPSIKETMRVQLSMEGSVNYHAFKCTGKGEGKPYEGTQSLNITITEGGPLPFAFDILSHAFQYGIKVFAKYPKEIPDFFKQSLPGGFSWERVSTYEDGGVLKATQETSLQGDCIICKVKVLGTNFPANGPVMQKKTCGWEPSTETVIPEDGGLLLRDTPALMLADGGHLSCFMETTYKSKKEVKLPELHFHHLRMEKLNISDDWKTVEQHESVVASYSQVPSKLGHN
Take B5: the Apparent MW [kDa] in series [6] came out at 23 kDa; in series [7], 39 kDa.

B6: AsGFP499(S94T/S103K/R150K/S171N/K206R), recombinant his-tagged (protein, not shown: small tags and cut ends)
chain: MYPSIKETMRVQLSMEGSVNYHAFKCTGKGEGKPYEGTQSLNITITEGGPLPFAFDILSHAFQYGIKVFAKYPKEIPDFFKQSLPGGFSWERVTTYEDGGVLKATQETSLQGDCIICKVKVLGTNFPANGPVMQKKTCGWEPSTETVIPKDGGLLLRDTPALMLADGGHLNCFMETTYKSKKEVKLPELHFHHLRMEKLNISDDWRTVEQHESVVASYSQVPSKLGHN
Regarding B6, the figures for the Apparent MW [kDa] in [8] and in [9] were 23 kDa and 39 kDa, respectively.
